Results on two molecules are retold here after publication PMC4973239, “Crystal structure of the human Tip41 orthologue, TIPRL, reveals a novel fold and a binding site for the PP2Ac C-terminus” (Scientific Reports, 2016).

Experiment [1] has as its target TIPRLΔN, His tag removed with TEV protease (human) (UniProt O75663). The experiment in a line: SEC; size exclusion profiles under different conditions (Fig. S1B), high concentration; HiLoad 26/60 Superdex 75 pg, Tris 20 mM pH 7.5, 100 mM NaCl, 10 mM β-mercaptoethanol. Background: In gel filtration, larger molecules generally elute earlier.
For experiment [2], the target named is T1, TIPRLΔN, His tag removed with TEV protease (human, UniProt O75663-1 16-272).
T1 construct: plasmid-derived residues left at the N-terminus after TEV cleavage; they form strand β1; TIPRL (TIP41, TOR signaling pathway regulator-like), human, NP_690866.1, with a 15-residue N-terminal deletion; TEV cleavage was usually incomplete; The last 16 C-terminal residues are disordered in the crystal; also called TIPRL (crystal structure); source: E. coli BL21(DE3), purified (Ni Sepharose, TEV …)
T1 sequence: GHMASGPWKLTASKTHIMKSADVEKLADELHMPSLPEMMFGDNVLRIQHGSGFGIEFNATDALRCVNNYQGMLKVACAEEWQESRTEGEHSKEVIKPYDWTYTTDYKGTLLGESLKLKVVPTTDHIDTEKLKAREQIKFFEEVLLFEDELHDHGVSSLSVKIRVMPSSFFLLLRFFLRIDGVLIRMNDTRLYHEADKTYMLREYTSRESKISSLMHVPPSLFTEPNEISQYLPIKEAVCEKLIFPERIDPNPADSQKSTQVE
Description: crystal structure; TIPRLΔN after TEV cleavage, 70–100 mg/ml; hanging drop at 18 °C, phosphate or SPG buffer pH 5.5–6.7, 2 to 3 M NaCl; two molecules in the asymmetric unit; 2.15 Å. To be noted: both partners purified.

A word on the stoichiometry N: it is a count of units in the complex or per binding partner.

As for “TIPRLΔN, His tag removed with TEV protease (from UniProt O75663-1 16-272) (domain or fragment)”, the stoichiometry N in experiment [1] is 2.

B1: peptide generated after cleavage with the TEV protease (MGHHHHHHENLYFQ) (peptide)
peptide: MGHHHHHHENLYFQ
notes: hexa-histidine tag and TEV cleavage site of the vector pET-TEV, as released by TEV protease; only LYFQ (site on chain A) or ENLYFQ (site on chain B) is seen in the density; also called TEV site peptide; TEV-derived peptide; source: E. coli BL21(DE3)
On to B1, for which the binding result in experiment [2] is recorded as “binds”.
